Results reported in US20180296689A1 (published 2018).

Legend:
[1] = molecular target: Human neonatal receptor (FcRn) (human, UniProt P55899 24-297, limits assumed); test: SPR (BIACore), low density FcRn biosensor chip, three runs of five dilutions
[2] = molecular target: T1, TROP-2 (EGP-1), human, on tumor cell lines (human, UniProt P09758 27-323); test: cell binding on TROP-2-positive PC-3 human prostate carcinoma cells, three separate occasions
T1 construct: whole, on cells; 36-kDa cell-surface glycoprotein; also called epithelial glycoprotein-1
T1 sequence (looked up): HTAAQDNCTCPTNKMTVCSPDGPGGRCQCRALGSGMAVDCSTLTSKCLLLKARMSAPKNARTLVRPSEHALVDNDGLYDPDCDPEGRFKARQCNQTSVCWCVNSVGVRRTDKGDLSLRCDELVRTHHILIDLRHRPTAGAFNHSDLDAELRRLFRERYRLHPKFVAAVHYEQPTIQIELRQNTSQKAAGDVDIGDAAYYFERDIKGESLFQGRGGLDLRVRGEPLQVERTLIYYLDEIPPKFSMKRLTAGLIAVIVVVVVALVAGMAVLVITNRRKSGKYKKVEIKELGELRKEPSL

Human neonatal receptor (FcRn), sequence (P55899 24-297 limits assumed): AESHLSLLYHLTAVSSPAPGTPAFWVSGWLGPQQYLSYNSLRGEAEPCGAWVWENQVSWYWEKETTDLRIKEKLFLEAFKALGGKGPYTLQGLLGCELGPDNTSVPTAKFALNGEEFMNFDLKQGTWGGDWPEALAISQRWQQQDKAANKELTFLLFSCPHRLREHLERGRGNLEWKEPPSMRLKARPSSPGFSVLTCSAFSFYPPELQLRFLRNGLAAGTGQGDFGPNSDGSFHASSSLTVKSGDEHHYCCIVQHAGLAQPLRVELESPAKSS

- Kd [1]: 192 nM
- Kd [2]: 0.564 nM
B1: hRS7 IgG (humanized anti-TROP-2 IgG1 monoclonal antibody, unconjugated) (antibody)
chain 1: not shown
chain 2: DIQLTQSPSSLSASVGDRVSITCKASQDVSIAVAWYQQKPGKAPKLLIYSASYRYTGVPDRFSGSGSGTDFTLTISSLQPEDFAVYYCQQHYITPLTFGAGTKVEIKRTVAAPSVFIFPPSDEQLKSGTASVVCLLNNFYPREAKVQWKVDNALQSGNSQESVTEQDSKDSTYSLSSTLTLSKADYEKHKVYACEVTHQGLSSPVTKSFNRGEC
